The nanobody polyreactivity screen of Harvey et al. (2022)

Assay: yeast display, Sf9 membrane polyspecificity reagent, FACS + sequencing; frameworks hold sequencing errors
How it was run: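 A nanobody's polyreactivity label depends on the gate it was sorted from. Yeast display cells were stained with 10% biotinylated, detergent-solubilized Sf9 membrane reagent for 1 hour at 4 °C, enriched on streptavidin microbeads and sorted by FACS. The low and high (top ~1%) gates were set on anti-HA fluorescence for expression and streptavidin fluorescence for reagent binding.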

Row | Sequence | polyreactivity (PSR sort gate)
1 | QVQLVESGGGLVQAGGSLRLSCAASGFTFKSNAMGGYRQAPGKEREKVAAIDSRGDRTYYADSVKGRFTISRDNAKNTVYLQMNSLKPEDTAVYYCATKWRTYWSSGEYWGQGTQVTVSS | high polyreactivity
2 | QDQLVESGGGLVQAGGSLSLSCAASGRTFYDYAMGWYRQAPGKERELVAAISRSGGRTYYADSVKGRFTISRDNAKNTVYLQMNSLKPEDTAVYYCNAVRYVLGYSYDYNYWGQGTQVTVSS | high polyreactivity
3 | QVQLVESGGGLVQAGGSLRLSCAASGSILYSYAMGWYRQAPGKERELVARITKRGGRTYYADSVKGRFTISRDNAKNTVYILMNSLKPEDTAVYYCAADFQYSYGEYDYWGQGTQVTVSS | high polyreactivity
4 | QVQLVESGGGLVQAGGSLRLSCAASGLTFKVYAMGWYRQAPGKERELVAAISWSGGSTYYADSVKGRFTISRDNAKNTVYLQMNSLKPEDTAVYYCAARGYAWYRGNYDYWGQGTQVTVSS | high polyreactivity
5 | QVQLVESGGGLVQAGGSLRLSCAASGSIFLYNAMGWYRQAPGKERELVAAITWSTDRTYYADSVKGRFTISRDNAKNTVYVQMNSLKPEDTAVYYCNRLVNHIYVPRRDYWGQGTQVTVSS | low polyreactivity
6 | QVQLVESGGGLVQAGGSLRLSCAASGFTFYNVMGWYRQAPGKERELVATISTSVDSTYYADSVKGRFTISRDNAKNTVYLQMNSLKPEDTAVYYCNADISSNYYDYFGYDYWGQGTQVTVSS | low polyreactivity
7 | QVQLVESGGGLVQAAGSLRLSCAASGSIFVSYAMGWYRPAPWKEREFVATINYSGGSSYYADSVKGRFTISRDNAKNTVYLQMNSLKPEDTAVYYCAARPYHHGYWLNYGYWGQGTQVTVSS | high polyreactivity
8 | QVQLVQSGGGLVQAGGSLRLSCAASGRIFNNYAMGWYRQAPRKERELLAAISGSGGSTYYADSVKGRFTISRDNAKNTVYLQMNCMKPEDTAVYYCSTSGPQYYSRNFDYWGQGTQVTVSS | low polyreactivity
9 | QVQLVESGGGLVQAGGSLRLSCAASGYILIYNAMGWYRQAPGTERELVAAINYRGDRTYYADSVKGRFTISRDNAKNTVYLQMNSLKPEDTAVYYCAKDYPYYGRYYRYPYDSWGQGTQVTVSS | high polyreactivity
10 | QVHLVESGGGLVQAGGSLRISCAASGRIFWWYAMGWYRQAPGKERELVAAISTGSRTYYADSVKGRFTISRDNAKNTVFLQMNRLKPEDTAVYYCVADGLYSVSRSSIFEYWGHGTQVTVSS | low polyreactivity
11 | QVQLVESGGGLDQAGGSLRLSCAASGSIFTQYAMGWYRQAPGKERELVAAITSGGSTYADSVKGRFTISRDNAKNTVYLQMNSLKPEDTAVYYCATPYSYRGVTFNYWGQGTLVTVSS | low polyreactivity
12 | QVQLVESGGGLVQAGGSLRLSCAASGSIFGYYDMGWYRQAPGKERELVAAISSRGGITYYADSVKGRFTISRDHAKNTVYLQMNSLKPEDTAVYYCAAYAYFHRREGYWVQGTQVTVSS | high polyreactivity
13 | QVQLVETGGGLVQAGGSLRLSCAPSGITFYVYAMGWYTQAPGKERELVAAISSGSSTYYADSVKGSFTISRDNAKNTVYLQMNSLKPEDTAVYYCAARYRKYLSEYCGQGTQVTVSS | high polyreactivity
14 | QVQLVESGGGLVQAGGSLRLSCAASGITLVRYAMGWYRQAPGKERELVAAISSSGGSTYYADSVKGRFTISRDTAKNTVYLQMNSLKPEDTAVYYCNAYVHSRRVEFNYWGQGTQVTVSS | high polyreactivity
15 | QVQLVESGGGLVQAGGSLRLSCAASGQTFYYYAMGWYRQAPGKERELVAAINSSGGITFYADSVKGRFTISRDNAKNTVYLQMNSLKPEDTAVYYCAAGGRSKRYVYWGQGTQVTVSS | low polyreactivity
16 | QVQLVESGGGLVQAGGSLRLSCAASGSIVPVYAMGWYRQAPGKEREFVAGINTIGGSTYYADSVKGRFTISRDNAKNTVYLQMNSLKPEDTAVYYCAATQYWNMYSWGQGTQVTVSS | low polyreactivity

Row | Sequence | polyreactivity (PSR sort gate)
17 | QVQLVESGGGLVQAGGSLRLSCAASGNTFYGYAMGWYRQAPGKDRELVASITLSGDSTYYADSVKGRFTISRDNAKNTVYLQMNSLKQEDTAVYYCAGVYTYPLGYYHYTYDYWGQGTQVTVSS | low polyreactivity
18 | QVQLVESGGGLVQAGGSLRLSCGASGSIFPDYAMGWYRQAPGKERELVAAITWSGGSTYYADSVKGRFTISRDNAKNTVNLQMNSLKPEDTAVYYCAAQLDPEWRGYFDQYGYDYWGQGTQVTVST | low polyreactivity
19 | QVQLVESGGGLLQAGGSLRLSCAASGSISAQYALGWYRQAPGKERELVAAIDFSGGSTYYADSVKGRFTISRDNAKNTVYLQRNSLKPEDTAVYYCAARGDGDPSTDITLVEYDYWGQGTQVTVSS | low polyreactivity
20 | QVQLQERGGGLVQVRGSLRLSCAASGTIIIYGFMGWNRQAPGKERELVASINLGGITNYADSVTGRFTISRDNAKNTVYRQMISLKPEDNAVYYCAAYVVTGQNYGYWCQGTQVTVSS | low polyreactivity
21 | QDQLVESGGGLVQAGGSLRLSCPASGRTFNYYAMGWYRQAPGKERELVAAISVSTTRTYYADSVKGRFTISRDNAKNTVYLQMNSLKPEDTAVYYCAAYRAGRFGYLGQGTQVTVSS | high polyreactivity
22 | QVQLVESGGGLVQAGGSLRLSCAASGLIFNFYAMGWYRPAPGKEREFVAAISWNAGSTYYADSVKGRFTISRDNAKNTVYLQMNSLKPEDTAVYYCNADQDYQGARPSGMDYWGQGTQVTVSS | low polyreactivity
23 | QVQLVESGGGLVQAGSSLRLSCAASGRIFGYYAMGWYRQAPGKEREFVASITYSGGRTYYADSVKGRFTISRDNAKNTVYLQMNSLKPEDTAVYYCAKRQSFLGVSYDYWGQGTQVTVSS | high polyreactivity
24 | QVQLVESGGGLVLAGGSLRLSCAASGRTFRSYAMGWYRQAPGKERELVAAISSGGSTNYADSVKGRFTISRDNAKNTVYLQMNSLKPEDTAVYYCAATFQLYRFIGYEYWGQGTQVTVSS | high polyreactivity
25 | QVQLVESGGGLVQAGGSLRLSCAASGFTFRSNVMGWYRQAPRKERELVAAIRWSGGSTYYADSVKGRFTISRDNAMNTVYLQMNSLKPDDTAVYYCNARIYRSGYKFNYWGQGTQVTVSS | high polyreactivity
26 | QVQLVEAGGGLVQAGGSLRLSCAASGSTFYKNAMGWYRPAAGKERELVAGISRRGGPTYYADSVKGRFTISRDKAMNTVYLQMNSLNPEDTAVYYCNTGHEEDEYDYWGQGTQVTVSS | low polyreactivity
27 | QVQLVESGGGLVQAGRSLRLTCAASGRIFRRYAMGWSRQAPGKERELVAAIRTSGGNTYYADSVKGRFTISRDNAKNTVYLQMNSLKPEDTAVYYCAAERGRLVAIASDYWGQGTQVTVSS | high polyreactivity
28 | QVQLVESGGGLVQAGGSLRLSCDASGSTFYPYVMGWYRQAPGKERELVARITWSGGSTYYADSVKGRFTISRDNAKNTVYLQMNSLKPEDTAVYYCAALRYVNLLAQAYEYWGQGTQVTVSS | high polyreactivity
29 | QVQLVESGGGLVQAGGSLRLSCAASGRTFVNNAMGWYRQAPGKERELVAAISRSGGRTYYADSVKGRFTISRDNAKNTVYLQMNSLKPEDTAVYYCAADSSYSRKYDYWGQGTQVTVSS | low polyreactivity
30 | QVQLVESGGGLVQAGGSLRLSCAASGSIFYSYGMGWYRQAPGKERELVAAITSSGGGTYYADSVKGRFTISRDNAKNTVYLQMNSLKPEDTAVYYCAADDRNYNYYPTFYYWGQGTQVTVSS | low polyreactivity
31 | QVQLVESGGGLVQAGGSLRLSCAASGRTFAQYTMGWYRQAPGKERELVAGIDWSGGNTYYADSVKGRFTISRDNAKNTVYLQMNSLKPEDTAVYYCAAVPAFYNAWGEDYEYWGQGTQVTVSS | low polyreactivity
32 | QVQLVESGGGLVQAGGSLRLSCAASGSIFRLNTMGWYRQAPGKERELVAAITRSGSTNYADSVKGRFTISRDNAMNTVYLQMNSLKPEDTAVYYCAARYPREAAYGFEYWGQGTQVTVSS | high polyreactivity
